Numbering of substitutions follows the chain as printed.
Key:
[1] = target: human vWF A1 domain (SEQ ID NO 5) (Homo sapiens, UniProt P04275, T1381A); assay: dot blot KD determination, human vWF A1 domain; settings: DNA 1 minimers; competition dot blot, 10 nM protein
[2] = test system: full length human vWF; assay: 3-point dot blot screen, full length human vWF; format: binding; settings: 20 nM full length human vWF, ratio of fraction of aptamer bound with target protein to fraction bound without protein
From the text: When a significant positive ratio of binding of DNA in the presence of human or rabbit vWF A1 domain versus in the absence of protein was seen, the pools were cloned using the TOPO TA cloning kit (Invitrogen Cat. #45-0641, Carlsbad, Calif.) according to the manufacturer's instructions. Round 7 and 11 pool templates were cloned and sequenced (218 total sequences), producing 146 unique clones within 12 sequence families of which sequences from six families show vWF target binding activity. All unique clones were assayed twice in a 3-point dot blot screen (no protein target control, 20 nM full length human vWF (Calbiochem Cat. #681300, La Jolla, Calif.), or 20 nM rabbit vWF A1 domain. The data is presented in the third and fourth columns of Table 17 below as the ratio of the fraction of the aptamer bound to the nitrocellulose in the presence of the target protein to the fraction of aptamer bound in the absence of the target protein.

[3] = test system: rabbit vWF A1 domain (SEQ ID NO 6); assay: 3-point dot blot screen, rabbit vWF A1 domain; format: binding; settings: 3-point dot blot screen, 20 nM rabbit vWF A1 domain; ratio of fraction of aptamer bound with target protein to fraction bound without protein
How it was run: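 Rabbit vWF A1 domain binding was screened by dot blot using three conditions: no target protein, human vWF, and rabbit vWF A1 domain at 100 nM (20 nM in the screen run twice). Radiolabeled aptamer bound to nitrocellulose was quantified, and results are expressed as the ratio of bound fraction with protein to bound fraction without protein.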

[4] = test system: full length human vWF binding to lyophilized platelets; assay: Full length human von Willebrand Factor platelet binding assay (FACS); format: cell-based; settings: 5 nM full length human vWF, lyophilized platelets, botrocetin; both bounds in nM
Procedure: The amount of vWF bound to fixed platelets can be measured with an antibody to vWF. The fluorescence signal from bound antibody incubated with a fluorescein conjugated secondary antibody is then detected and quantified by flow cytometry. The ability of an aptamer of the invention to block vWF binding to platelets is correlated with a reduction in fluorescence signal.
Aptamer potency to block human vWF binding to lyophilized platelets was assessed by flow cytometric analysis. Titrations of aptamers (0 nM, 0.1 nM to 1000 nM) were pre-incubated briefly with 5 nM of full length human vWF in FACS buffer (PBS plus 0.5% bovine serum albumin) at room temperature in a volume of 50 uL. Another 50 uL containing 5 uL of lyophilized platelets plus 1 uL of 0.1 U/uL of botrocetin in FACS buffer was added to aptamer/vWF. This reaction was allowed to proceed for 15 minutes at 37 degrees C. after which 200 uL of FACS buffer was added. Platelets were collected by a 6 minute spin at 1470 RCF and the supernatant was discarded. The pellets were resuspended in 100 uL of FACS buffer containing a 1:100 dilution of anti-vWF antibody and were incubated at room temperature for 30 minutes. After dilution with 200 uL of FACS buffer, the platelets were spun at 1470 RCF for 6 minutes and the supernatant was discarded. The pellets were resuspended in a 1:100 solution of anti-IgG2a-FITC antibody and were incubated in the dark for 30 minutes at room temperature. The entire 100 uL was diluted into 200 uL of FACS buffer and analyzed immediately by flow cytometric analysis in the FACSCAN. Artifactual data from contaminating debris was eliminated from the analysis by drawing a gate around the population of single and aggregated platelets. Mean fluorescent intensity (“MFI”) readings were quantified for each sample analyzed by flow cytometry. Background MFI was subtracted from all data points. Percent inhibition was reported by calculating the percent value of binding of full length human vWF to platelets in the presence of aptamer at a given concentration relative to binding in the absence of any aptamer (see FIG. 7). IC50 values were determined by fitting the percent inhibition of vWF binding to platelets as a function of aptamer concentration to the equation: % inhibition=% inhibitionmax/(1+IC50/aptamer conc.)

Chain of rabbit vWF A1 domain (SEQ ID NO 6) (as listed by the source): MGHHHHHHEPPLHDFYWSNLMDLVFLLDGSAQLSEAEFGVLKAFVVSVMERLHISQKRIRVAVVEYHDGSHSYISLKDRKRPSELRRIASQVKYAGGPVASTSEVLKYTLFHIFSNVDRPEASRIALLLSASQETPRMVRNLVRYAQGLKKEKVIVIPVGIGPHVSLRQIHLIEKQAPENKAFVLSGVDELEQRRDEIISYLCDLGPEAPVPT
Chain of human vWF A1 domain (SEQ ID NO 5) (P04275 with tags, fused parts or gaps T1381A): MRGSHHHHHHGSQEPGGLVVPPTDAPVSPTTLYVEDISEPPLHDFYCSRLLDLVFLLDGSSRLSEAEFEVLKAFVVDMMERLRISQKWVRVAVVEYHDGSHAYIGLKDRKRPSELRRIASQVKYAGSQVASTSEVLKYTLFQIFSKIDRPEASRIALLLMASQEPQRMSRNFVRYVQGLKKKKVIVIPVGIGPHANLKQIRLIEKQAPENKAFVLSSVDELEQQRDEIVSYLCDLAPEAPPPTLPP

Molecule: CGATCTGACTAGCGGAATGAGAATGCTGGTGGATCG (DNA, backbone not given here) [SEQ ID NO 206]
- Human vWF A1 domain KD [1]: No binding

Molecule: GATCTGACTAGCGCAATGAGGATGCdTGATGGATTGCTCAGGTC (GATCTGACTAGCGCAATGAGGATGCDTGATGGATTGCTCAGGTC; DNA, backbone and the base at N not given here) [SEQ ID NO 207]
- Human vWF A1 domain KD [1]: No binding

B1: AMX237.E2: DNA SELEX 2 aptamer clone (nucleic acid)
DNA: CTACCTACGATCTGACTAGCTCCAGTGTTTCATCTAATAACCGTGCGGTGCCTCCGTGAGCTTACTCTCATGTAGTTCC
modifications: DNA, backbone not given here
notes: DNA SELEX 2 aptamer clone
- Screen- Human/No Protein [2]: 1.61
- Screen Rabbit/No Protein [3]: 1.61

B2: AMX238.D8: DNA SELEX 2 aptamer clone (nucleic acid)
DNA: B1 DNA with C31T, T35C, T38C
modifications: DNA, backbone not given here
notes: DNA SELEX 2 aptamer clone
- Screen- Human/No Protein [2]: 2.02
- Screen Rabbit/No Protein [3]: 1.97

B3: AMX237.B4: DNA SELEX 2 aptamer clone (nucleic acid)
DNA: B1 DNA with T35C, C52T
modifications: DNA, backbone not given here
notes: DNA SELEX 2 aptamer clone
- Screen- Human/No Protein [2]: 1.42
- Screen Rabbit/No Protein [3]: 1.38

B4: AMX237.E9: DNA SELEX 2 aptamer clone (nucleic acid)
DNA: B1 DNA with C31T, A32G
modifications: DNA, backbone not given here
notes: DNA SELEX 2 aptamer clone
- Screen- Human/No Protein [2]: 2.13
- Screen Rabbit/No Protein [3]: 2.06

B5: AMX238.D5: DNA SELEX 2 aptamer clone (nucleic acid)
DNA: B1 DNA with C31T, C34T, T35C, C51T
modifications: DNA, backbone not given here
notes: DNA SELEX 2 aptamer clone
- Screen- Human/No Protein [2]: 1.46
- Screen Rabbit/No Protein [3]: 1.40

B6: AMX237.F10: DNA SELEX 2 aptamer clone (nucleic acid)
DNA: CTACCTACGATCTGACTAGCGTGCAGTGCCCATTCCAGGCCGTGCGGTATCCTCCGTCACGCTTACTCTCATGTAGTTCC
modifications: DNA, backbone not given here
notes: DNA SELEX 2 aptamer clone
- Screen- Human/No Protein [2]: 2.90
- Screen Rabbit/No Protein [3]: 2.90

B7: AMX237.C5: DNA SELEX 2 aptamer clone (nucleic acid)
DNA: B6 DNA with C31T, T34C, C35T
modifications: DNA, backbone not given here
notes: DNA SELEX 2 aptamer clone
- Screen- Human/No Protein [2]: 2.55
- Screen Rabbit/No Protein [3]: 2.36

B8: AMX236.H2: DNA SELEX 2 aptamer clone (nucleic acid)
chain: B6 DNA with C31T, T34C, T50G
modifications: DNA, backbone not given here
notes: DNA SELEX 2 aptamer clone
- Screen- Human/No Protein [2]: 2.12
- Screen Rabbit/No Protein [3]: 2.06

B9: AMX237.D11: DNA SELEX 2 aptamer clone (nucleic acid)
DNA: CTACCTACGATCTGACTAGCTCCAGTGTTTTATATAATAACCGTGCGGTGCCTCCGTGATGCTTACTCTCATGTAGTTCC
modifications: DNA, backbone not given here
notes: DNA SELEX 2 aptamer clone
- Screen- Human/No Protein [2]: 1.16
- Screen Rabbit/No Protein [3]: 1.17

B10: AMX236.F8: DNA SELEX 2 aptamer clone (nucleic acid)
chain: B9 DNA with A34C, T35C
modifications: DNA, backbone not given here
notes: DNA SELEX 2 aptamer clone
- Screen- Human/No Protein [2]: 1.14
- Screen Rabbit/No Protein [3]: 1.13

B11: AMX238.G6: DNA SELEX 2 aptamer clone (nucleic acid)
DNA: B9 DNA with A34C, T35C, T49G
modifications: DNA, backbone not given here
notes: DNA SELEX 2 aptamer clone
- Screen- Human/No Protein [2]: 1.25
- Screen Rabbit/No Protein [3]: 1.22

B12: AMX237.F6: DNA SELEX 2 aptamer clone (nucleic acid)
DNA: B9 DNA with A34C
modifications: DNA, backbone not given here
notes: DNA SELEX 2 aptamer clone
- Screen- Human/No Protein [2]: 1.20
- Screen Rabbit/No Protein [3]: 1.21

B13: AMX237.C7: DNA SELEX 2 aptamer clone (nucleic acid)
DNA: B9 DNA with A34T, T35C
modifications: DNA, backbone not given here
notes: DNA SELEX 2 aptamer clone
- Screen- Human/No Protein [2]: 1.15
- Screen Rabbit/No Protein [3]: 1.16

B14: AMX237.F9: DNA SELEX 2 aptamer clone (nucleic acid)
DNA: CTACCTACGATCTGACTAGCTTGGTAGCGATTCTGTGGAGCTGCGGTTTGGTCGACGTCAGCTTACTCTCATGTAGTTCC
modifications: DNA, backbone not given here
notes: DNA SELEX 2 aptamer clone
- Screen- Human/No Protein [2]: 2.21
- Screen Rabbit/No Protein [3]: 2.31

B15: AMX237.F12: DNA SELEX 2 aptamer clone (nucleic acid)
DNA: B14 DNA with C33T
modifications: DNA, backbone not given here
notes: DNA SELEX 2 aptamer clone
- Screen- Human/No Protein [2]: 1.95
- Screen Rabbit/No Protein [3]: 2.08

B16: AMX237.C9: DNA SELEX 2 aptamer clone (nucleic acid)
DNA: B14 DNA with C28T, T31C, C33T
modifications: DNA, backbone not given here
notes: DNA SELEX 2 aptamer clone
- Screen- Human/No Protein [2]: 2.05
- Screen Rabbit/No Protein [3]: 2.19

B17: AMX236.B8: DNA SELEX 2 aptamer clone (nucleic acid)
chain: B14 DNA with T31C, T48C
modifications: DNA, backbone not given here
notes: DNA SELEX 2 aptamer clone
- Screen- Human/No Protein [2]: 1.66
- Screen Rabbit/No Protein [3]: 1.88

B18: AMX237.E10: DNA SELEX 2 aptamer clone (nucleic acid)
DNA: CTACCTACGATCTGACTAGCGGAATGAGAATGCTGGTGGATTGCTCAGGTCTGCTGGCTGCTTACTCTCATGTAGTTCC
modifications: DNA, backbone and methylation of C not given here
notes: DNA SELEX 2 aptamer clone
- Screen- Human/No Protein [2]: 1.12
- Screen Rabbit/No Protein [3]: 6.04
- Inhibition of full length hVWF binding in FACS assay, IC50 range [4]: no activity

B19: AMX236.G1: DNA SELEX 2 aptamer clone (nucleic acid)
chain: CTACCTACGATCTGACTAGCCTCAGATTGACTCCGGCTGACTTGTTTTAATCTTCTGAGTGCTTACTCTCATGTAGTTCC
modifications: DNA, backbone not given here
notes: DNA SELEX 2 aptamer clone
- Screen- Human/No Protein [2]: 1.47
- Screen Rabbit/No Protein [3]: 1.51

B20: AMX238.F7: DNA SELEX 2 aptamer clone (nucleic acid)
DNA: CTACCTACGATCTGACTAGCAAGGGGATTGGCTCCGGGTCTGGCGTGCTTGGCATCTTTGGCTTACTCTCATGTAGTTCC
modifications: DNA, backbone not given here
notes: DNA SELEX 2 aptamer clone
- Screen- Human/No Protein [2]: 1.20
- Screen Rabbit/No Protein [3]: 1.88

B21: AMX238.E7: DNA SELEX 2 aptamer clone (nucleic acid)
DNA: CTACCTACGATCTGACTAGCGTGCAGTGCCTATTTTAGGCCGTGCGGTGCCTCCGTCACGCTTACTCTCATGTAGTTCC
modifications: DNA, backbone not given here
notes: DNA SELEX 2 aptamer clone
- Screen- Human/No Protein [2]: 3.02
- Screen Rabbit/No Protein [3]: 2.83

B22: AMX238.F2: DNA SELEX 2 aptamer clone (nucleic acid)
DNA: B21 DNA with G21A, T31C, T35C, C59T
modifications: DNA, backbone not given here
notes: DNA SELEX 2 aptamer clone
- Screen- Human/No Protein [2]: 2.84
- Screen Rabbit/No Protein [3]: 2.76

B23: AMX238.F3: DNA SELEX 2 aptamer clone (nucleic acid)
DNA: B21 DNA with C40T, T48G
modifications: DNA, backbone not given here
notes: DNA SELEX 2 aptamer clone
- Screen- Human/No Protein [2]: 2.83
- Screen Rabbit/No Protein [3]: 2.72

B24: AMX237.C11: DNA SELEX 2 aptamer clone (nucleic acid)
DNA: B21 DNA with T35C, C59T
modifications: DNA, backbone not given here
notes: DNA SELEX 2 aptamer clone
- Screen- Human/No Protein [2]: 2.04
- Screen Rabbit/No Protein [3]: 1.95

Source: US7998940B2, “Aptamers to von Willebrand factor and their use as thrombotic disease therapeutics” (Archemix Corp., priority 2004, dated 2011)
